The results in this text go back to publication PMC3791407, “Structural Rearrangement in an RsmA/CsrA Ortholog of Pseudomonas aeruginosa Creates a Dimeric RNA-Binding Protein, RsmN”.

In data set [1] the target is RsmN (Pseudomonas aeruginosa PAO1) (UniProt Q02EI1). The data set is described as follows: ITC. For orientation: In ITC the heat of successive injections is recorded.
For data set [2], the target named is RsmN (His6-Thb-RsmN) (Pseudomonas aeruginosa PAO1). Nature of the data set: SEC + native MS; gel filtration analysis and ESI-MS of the purified His-tagged RsmN construct; conditions in the Supplemental Information. In general terms: Size exclusion chromatography separates by hydrodynamic size, large species first.
For data set [3], the target named is RsmN R62A (Pseudomonas aeruginosa PAO1) (UniProt Q02EI1). The data set is described as follows: ITC. The note with it: ITC: 125 uM RNA titrated into protein, 25 mM potassium phosphate pH 7, 50 mM NaCl, 298 K; SEC: 50 uM protein, 100 uM RNA, same buffer.
For data set [4], the target named is RsmA (UniProt O69078 1-61). Nature of the data set: ITC; 1 hairpin per monomer; ITC: 125 uM RNA titrated into protein, 25 mM potassium phosphate pH 7, 50 mM NaCl, 298 K; SEC: 50 uM protein, 100 uM RNA, same buffer. Conditions: protein: recombinant, tags: N-terminal His6-thrombin site (LVPRGS), chain copies: 2, 6-nt loop AAGGAU, G5-C12 closing pair.

Where two headings read alike, the source gives them in different places. A value given as a limit tells only on which side of the number the result lay.

GCGCAGGAAGCGC [RsmY-1 hairpin] showed a Kd in data set [1] of 526 nM.

Turning to “UAAAAGGAAUA [PA1003/pqsR ribosome binding site]”, the Kd in data set [1] came out at 704 nM.

For RsmN (His6-Thb-RsmN) (natural protein), in data set [2], the stoichiometry N is 2.

For CCCCGAAGGAUCGGGG [RsmZ-2 hairpin], the Kd in data set [1] (ITC: 125 uM RNA titrated into protein, 25 mM potassium phosphate pH 7, 50 mM NaCl, 298 K, SEC: 50 uM protein, 100 uM RNA, same buffer) amounted to 276 nM. Also, in data set [3], the binding signal (fold lower affinity than wild type) was more than 1000.

On to CCCCGAAGGAUCGGGG (structured_RNA) [RsmZ-2 hairpin], for which the Kd in data set [4] stood at 264 ± 43 nM.

The term Kd denotes the concentration at which binding is half-saturated. The stoichiometry N is the number of molecules, sites or subunits per partner or assembly.
